The target of one test is T1, human CCR1 (human, UniProt P32246 1-355).
T1 construct: whole, on cells
T1 sequence (looked up): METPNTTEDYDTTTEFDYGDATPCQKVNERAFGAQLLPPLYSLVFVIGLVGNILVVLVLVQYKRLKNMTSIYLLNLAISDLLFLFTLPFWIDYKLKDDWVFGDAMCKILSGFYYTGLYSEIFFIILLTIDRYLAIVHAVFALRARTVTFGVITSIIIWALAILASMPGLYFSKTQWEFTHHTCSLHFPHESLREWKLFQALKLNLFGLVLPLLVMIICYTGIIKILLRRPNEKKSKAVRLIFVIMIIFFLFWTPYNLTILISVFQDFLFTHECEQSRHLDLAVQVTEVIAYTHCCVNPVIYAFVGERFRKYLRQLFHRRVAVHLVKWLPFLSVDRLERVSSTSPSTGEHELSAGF
The test can be described thus: FACS on ExpiCHO-S-human CCR1 cells. On the procedure: (§1) ExpiCHO-S cells were transiently transfected with human CCR1 or human CCR4. A total of 5×10⁴ cells for each well were seeded in 96-well plates and washed with FACS buffer (DPBS containing 1.5% FBS) for once. […] Cells were incubated with 50 μL of diluted antibodies at 4° C. for 1 hour. […] After primary antibody incubation, cells were washed for 3 times by FACS buffer. Then, cells were stained by Alexa Flu647 labeled anti-human IgG secondary antibody (Jackson ImmunoResearch, #109606170) or Alexa Flu647 labeled anti-mouse IgG secondary antibody (Jackson ImmunoResearch, #115605072) at 1:600 dilution in FACS buffer for 0.5 hour at 4° C. Flow cytometry was performed to measure the binding.

The target in test [1] is T2, cynomolgus CCR8 (cynomolgus, UniProt G7NYJ2 1-355).
T2 construct: whole, on cells
In words: FACS on ExpiCHO-S-cynomolgus CCR8 cells.

For the next test, the target named is T3, human CCR4 (human, UniProt P51679 1-360).
T3 construct: whole, on cells
T3 sequence (looked up): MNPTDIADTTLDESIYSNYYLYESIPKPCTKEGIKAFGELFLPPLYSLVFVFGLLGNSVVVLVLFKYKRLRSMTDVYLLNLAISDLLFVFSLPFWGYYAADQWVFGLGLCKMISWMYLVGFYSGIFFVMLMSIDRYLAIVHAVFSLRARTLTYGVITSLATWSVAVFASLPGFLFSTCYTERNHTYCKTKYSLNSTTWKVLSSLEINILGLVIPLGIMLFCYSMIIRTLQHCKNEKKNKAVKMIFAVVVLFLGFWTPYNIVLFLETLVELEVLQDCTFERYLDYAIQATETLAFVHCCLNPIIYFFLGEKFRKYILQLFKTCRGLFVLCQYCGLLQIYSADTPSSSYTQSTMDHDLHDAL
The test can be described thus: FACS on ExpiCHO-S-human CCR4 cells. On the procedure:
as §1

Test [2] deals with T4, human CCR8 (human, UniProt P51685 1-355).
T4 construct: whole, on cells; also called hCCR8
The test can be described thus: FACS on HEK293-human CCR8 cells.

In test [3] the target is T4, human CCR8. In words: cell-based or functional assay.
The target in test [4] is T4, human CCR8. In words: FACS, competition with AF647-human CCL1 on CHO-K1-human CCR8 cells.
Test [5] concerns the target T2, cynomolgus CCR8. The test can be described thus: FACS on HEK293-cynomolgus CCR8 cells. On the procedure: (§2) A total of 5×10⁴ cells for each well were seeded in 96-well plates and washed with FACS buffer (DPBD containing 1.5% FBS) for once. Antibodies were prepared with 3-fold serial dilution ranging from 100 nM to 0.0017 nM in FACS buffer. Cells were incubated with 50 μL of diluted antibodies at 4° C. for 1 hour. […] After primary antibody incubation, cells were washed for 3 times by FACS buffer. Then, cells were stained by Alexa Flu647 labeled anti-human IgG secondary antibody (Jackson ImmunoResearch, #109606170) or Alexa Flu647 labeled anti-mouse IgG secondary antibody (Jackson ImmunoResearch, #115605072) at 1:600 dilution in FACS buffer for 0.5 hour at 4° C. After washed for 3 times, Flow cytometry was performed to measure the binding.

The target in test [6] is T4, human CCR8. In words: FACS on HEK293-human CCR8 cells. In outline:
(§3)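 Antibodies, 3-fold dilutions from 100 nM to 0.0017 nM, incubated with 5×10⁴ HEK293 cells in FACS buffer (1.5% FBS) 1 h at 4 °C. Binding detected by flow cytometry after Alexa Fluor 647 anti-human or anti-mouse IgG secondary (1:600, 0.5 h, 4 °C).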
The source holds these as a separate data set.

The target in test [7] is T4, human CCR8. In words: FACS, competition with AF647-human CCL1 on CHO-K1-human CCR8 cells. This is another data set of the same source. A general note: In flow cytometry, cells or beads pass a laser one at a time.
Test [8] deals with T2, cynomolgus CCR8. In words: FACS on HEK293-cynomolgus CCR8 cells. In outline:
as §3
This is another data set of the same source.

Test [9] deals with T4, human CCR8. The test can be described thus: FACS, competition with AF647-human CCL1 on CHO-K1-human CCR8 cells. This is another data set of the same source.
For test [10], the target named is T4, human CCR8. In words: FACS on HEK293-human CCR8 cells. On the procedure: as §2
The source holds these as a separate data set.

The target of test [11] is T4, human CCR8. In words: FACS, competition with CCL1 on CHO-K1-human CCR8 cells.
Test [12] concerns the target T4, human CCR8. The test can be described thus: FACS on HuT78 cells (endogenous human CCR8). In outline:
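HuT78 cells with endogenous human CCR8 were incubated with diluted antibodies for 1 h at 4 °C, washed, then stained 0.5 h at 4 °C with Alexa Fluor 647 anti-human IgG (1:600). Binding measured by flow cytometry.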

Test [13] addresses T2, cynomolgus CCR8. The test can be described thus: FACS on HEK293-cynomolgus CCR8 cells. This is another data set of the same source.
Test [14] addresses T4, human CCR8. The test can be described thus: FACS on CHO-K1-human CCR8 cells.

T2 sequence (G7NYJ2 entry or part of it): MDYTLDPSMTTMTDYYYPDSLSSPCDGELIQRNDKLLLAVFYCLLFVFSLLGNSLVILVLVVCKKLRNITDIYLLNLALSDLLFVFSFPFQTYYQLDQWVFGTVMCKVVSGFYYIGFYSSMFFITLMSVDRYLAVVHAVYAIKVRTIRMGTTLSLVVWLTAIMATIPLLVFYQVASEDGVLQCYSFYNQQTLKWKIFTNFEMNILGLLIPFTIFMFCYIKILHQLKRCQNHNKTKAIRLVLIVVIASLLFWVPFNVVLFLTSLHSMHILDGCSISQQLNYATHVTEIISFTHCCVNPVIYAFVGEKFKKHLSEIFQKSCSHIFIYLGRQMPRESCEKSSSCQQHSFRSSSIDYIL
T4 sequence (P51685 whole entry): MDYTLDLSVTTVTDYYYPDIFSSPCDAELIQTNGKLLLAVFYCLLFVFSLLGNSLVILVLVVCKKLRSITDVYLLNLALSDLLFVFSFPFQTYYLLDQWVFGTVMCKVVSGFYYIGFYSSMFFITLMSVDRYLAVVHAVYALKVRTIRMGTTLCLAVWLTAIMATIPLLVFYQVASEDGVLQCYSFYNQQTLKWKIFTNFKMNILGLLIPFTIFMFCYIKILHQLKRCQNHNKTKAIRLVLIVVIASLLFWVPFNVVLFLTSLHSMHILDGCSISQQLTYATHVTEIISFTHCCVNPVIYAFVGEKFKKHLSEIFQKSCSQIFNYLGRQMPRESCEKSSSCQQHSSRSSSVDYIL

B1: Hu348-4 (antibody, human IgG1, V domains shown)
VH: EVQLVESGGGLVQPGGSLKLSCATSGFSFSNYRMHWLRQASGKGLEWVGVITVKSDNYGANYAASVKGRFTISRDDSKSSVYLQMNSLKTEDTAVYYCSSLGRVAYWGQGTLVTVSS
VL: DIQMTQSPSSVSASVGDRVTITCKASQNVDTNVVWYQQKPGQSPKALIYSASSRYSGVPSRFSGSGSGTDFTLTISSLQPEDFATYYCQQHNSFPLTFGQGTKLEIK
notes: humanized, human IgG1; also called Hu348-4 HuIgG1
The term EC50 denotes the concentration at which the effect is half-maximal. The IC50 is the concentration needed to halve the response being measured. B1: the binding result with human CCR1 is “no binding (tested: 200 nM)”. In addition, in the test with cynomolgus CCR8 [1], the EC50 stood at 0.087 nM and the “Max MFI” value was determined as 534 MFI. Also, the binding result with human CCR4 is “no binding (tested: 200 nM)”. In the test with human CCR8 [2], the concentration for a half-maximal effect (EC50) is 0.109 nM and the “Max MFI” value worked out at 5120 MFI. In addition, in the test with human CCR8 [3], the “EC50, ADCC with human PBMC” value was 0.517 nM and the “Max specific lysis (%), ADCC with human PBMC” value (“Max specific lysis (%), ADCC” for short) amounted to 13.5%. Besides, in the test with human CCR8 [4], the IC50 stood at 0.151 nM and the “Max Inhibition (%)” value came out at 94.6%.

B2: CM149 (antibody, V domains shown)
VH: EVQLVESGGGLVQPKGSLKLSCAASGFTFNTYAMNWVRQAPGKGLEWVARIRSKSNFYATYYADSVKDRFTISRDDSQDMLYLQMNILKTEDTAIYYCVRGRDYGSSYAMDYWGQGTSVTVSS
VL: DIVMTQAAPSVPVTPGESVSISCRSSKSLLHSNANTYLYWFLQRPGQSPQLLIYRMSNLASGVPDRFSGSGSGTAFTLRISRVEAEDVGVYYCMQHLEYPLTFGAGTKLELK
notes: CM149 is not defined in words; also called CM149 HuIgG1; parental antibody CM149
Turning to B2, the EC50 turned out to be 0.263 nM with cynomolgus CCR8 [5], 0.142 nM with human CCR8 [6], 0.235 nM with cynomolgus CCR8 [8] and 0.18 nM in the test with human CCR8 [10]. Besides, the results for the “Max MFI” value with human CCR8 [6] and with cynomolgus CCR8 [8] were 7100 MFI and 18100 MFI, respectively. Also, the IC50 with human CCR8 [7] amounted to 0.708 nM; in the test with human CCR8 [9], 0.681 nM. In addition, the “EC50, ADCC with human PBMC” value with human CCR8 [3] was found to be 0.067 nM. The “Max specific lysis (%), ADCC” value with human CCR8 [3] was found to be 10.3%. For the same molecule, the “Max Inhibition (%)” value with human CCR8 [9] was determined as 97.8%.

B3: Hu149-9 (antibody, human IgG1, V domains shown)
VH: EVQLVESGGGLVQPGGSLKLSCAASGFTFNTYAMNWVRQASGKGLEWVGRIRSKSNFYATAYAASVKGRFTISRDDSKNTAYLQMNSLKTEDTAVYYCTRGRDYGSSYAMDYWGQGTLVTVSS
VL: DIVMTQSPLSLPVTPGEPASISCRSSKSLLHSNANTYLYWFLQKPGQSPQLLIYRMSNLASGVPDRFSGSGSGTDFTLKISRVEAEDVGVYYCMQHLEYPLTFGGGTKVELK
notes: humanized, human IgG1; also called Hu149-9 HuIgG1
As to B3, the concentration for a half-maximal effect (EC50) in the test with cynomolgus CCR8 [5] came out at 0.12 nM; with cynomolgus CCR8 [13] it was 0.0824 nM; with human CCR8 [10], 0.072 nM; in the test with human CCR8 [14], 0.0487 nM. For the same molecule, the IC50 was 0.119 nM with human CCR8 [7] and 0.087 nM with human CCR8 [11]. Further, the “Max Inhibition (%)” value in the test with human CCR8 [11] came to 99.2%. Besides, the “Max MFI” value was found to be 32300 MFI with human CCR8 [12], 3.53e+06 MFI with cynomolgus CCR8 [13] and 625000 MFI in the test with human CCR8 [14]. The “EC50, ADCC with human PBMC” value in the test with human CCR8 [3] came to 0.06 nM. Moreover, in the test with human CCR8 [3], the “Max specific lysis (%), ADCC” value turned out to be 7.56%.

These data come from US20250034266A1 (ZAI LAB SHANGHAI, published 2025).
